Test results published in patent US20210038528.

How the values were obtained:
[1] = tested on: T1, CGPLGLAGGERDGC (MMP9 substrate) peptide cross-linker as presented in MMP9-NANs
T1 sequence: CGPLGLAGGERDGC

[2] = tested on: T2, CGFLGC (cathepsin B substrate) peptide cross-linker as presented in CathB-NANs
T2 sequence: CGFLGC

## MMP9 enzyme (matrix metalloproteinase 9)
[1]
  dye release from pep-NAN (fluorescence assay): MMP9-NANs and CathB-NANs released their dye when treated with their intended enzyme targets, MMP9 and cathepsin B, respectively
  dye release from pep-NAN at pH 5 (fluorescence monitoring): Exposure of MMP9-NANs to cathepsin B and MMP9 at pH 5 resulted in no observable change in fluorescence

## MMP2
[1]
  dye release from pep-NAN at pH 7 (fluorescence assay): The results of these experiments indicated that the MMP9-NAN is specific to the MMP9 enzyme

## MMP1
[1]
  dye release from pep-NAN at pH 7 (fluorescence assay): The results of these experiments indicated that the MMP9-NAN is specific to the MMP9 enzyme

## cathepsin B
[1]
  dye release from pep-NAN (fluorescence assay): Cathepsin B activity on MMP9-NANs was also evaluated, in which no fluorescence change was observed
[2]
  dye release from pep-NAN (fluorescence assay): MMP9-NANs and CathB-NANs released their dye when treated with their intended enzyme targets, MMP9 and cathepsin B, respectively
  time to comparable fluorescence change, relative to MMP9-NAN degradation by MMP9: it takes ˜20× as long to see comparable fluorescence changes in solution when cathepsin B is added to a solution of CathB-NANs as compared to MMP9-NAN degradation by MMP9
